Laboratory results: publication PMC2323298

Each substance was assayed against Mouse monoclonal antibody 1F9 (isotype IgG2b with a Kappa light chain) (assay: phage ELISA). Conditions: immobilized 1F9; phage dilution 5 (first point of the series); duplicate; parent: est. 0.88; read off a plot.

First: 3D7 AMA1 domain I expressed on M13 phage D204N
Second: 3D7 AMA1 domain I expressed on M13 phage N228K
The response (absorbance 450 nm) of the first is lower: 0.06 for the first, 0.38 for the second.

First: 3D7 AMA1 domain I expressed on M13 phage H200L
Second: 3D7 AMA1 domain I expressed on M13 phage F201L
The response (absorbance 450 nm) of the first is lower: 0.17 for the first, 0.53 for the second.

“3D7 AMA1 domain I expressed on M13 phage F201V” gave a response (absorbance 450 nm) of 0.06.
